Assay results: the nanobody polyreactivity screen of Harvey et al. (2022)

Experiment: yeast display, Sf9 membrane polyspecificity reagent, FACS + sequencing; frameworks hold sequencing errors
Summary of the method: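 Genes from sorted yeast were amplified by colony PCR, read by MiSeq 2 × 250 sequencing and filtered on CDR length. These cells carried a synthetic nanobody library in Saccharomyces cerevisiae BJ5465 and were sorted by FACS into low and high (top ~1%) gates on anti-HA and streptavidin fluorescence. Polyreactivity is labelled according to the gate of origin.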

Row | Sequence | polyreactivity (PSR sort gate)
1 | QVQLVESGGGLVQAGGSLRLSCAASGSIFVGNAMGWYRQAPGKERELVAGISKSGSRTYYADSVKGRFTISRDNAKNTVYVQMNSLKPEDTSVYYCAAGKVAYYTLDYYWGQGTQVTVSS | high polyreactivity
2 | QVQLQESGGGLVQADGSLRLSCAASGSIFGYYYMGWYRQAPGKDRELVATINICGITNYADSVKGRFTISRDNAKNTVYLQMNSLKPDDTAVYYCAADEYAQRDLGYWGQGTQVTVSR | low polyreactivity
3 | QLQLVESGGGLVQAGGSLRLSCAASGSTVAYNDMGWYRQAPGKERELVADIRSGGNTNYADSVKGRFTISRDNAKNTVYLQMNSLKTEDTAVYYCATDGYRIDVYHPDYRYDYWGQGTQVTVSS | low polyreactivity
4 | QVQLVESGGGLVQAGGSLRLTCAASGFIIKFYDMGWYRQAPGKERELVATITFSSGTTYYADSVKGRFTISRDNAKNTVYLQMNSLKPEDTAVYYCAAYTLPAWPYDGPAGPRYDYWGQGTQVTVSS | low polyreactivity
5 | QVQLVESGGGLVQAGGSLRLSCAASGRISESNDMGWYRQAPGKERELVAAISSSGGSTYYADSVKGRFTISRDNAKNTVYLQMNSLKPEDTAVYYCAAQTGYSYGITWQFTKYNYWGQGTQVTVSS | low polyreactivity
6 | QVQLVESGGGLVQAGGSLRLSCAASGSTFYPYDMGWYRQAPGKERELVATMTSTGGSTNYADSVKGRFTISRDNAKNTVYLQMNSLKPEDTAVYYCAKDWNDDQHSWDTPFDYWGQGTQVTVSS | low polyreactivity
7 | QVQLVESGGGLVQAGGSLRLSCAASGNIFSFYAMGWYRQAPGKERELVAAINWSGGDTYYADSVKGRFTISRDNAKNTVYLQMNSLKPEDTAVYYCAAEYYYQYYPGGYDYWGQGTQVTVSS | high polyreactivity
8 | QVQRVESGGGIVQAGGSLRLSSAASGSIYLYHAMGWYRPERGKERQLVAAIRSGGITYYADSVKGRFTISRDNAKNTVYLQMYSLKPEDTADYYCAAKFYWKGTPKKYYYWGQGTQETVSS | high polyreactivity
9 | QVQLVESGGCLVQAGGSLRLSCAASGFTFGRNYMGWYRQAPGKEREFVASISGSGGRTYYADSVKGRFTISRDNAKNTVYLQMNSLQPEDTAVYYCAAYRYSAYLYWDEYGGQGTQVTVSS | high polyreactivity
10 | QVQLVESGGGLVQAGGSLRLSCAASGRTFAHYAMGWYRQAPGKERELVAVITSGGITYYADSVKGRFTISRDNAKNTVYLQMNSLKPEDTAVYYCNVYSYYYSYGSPYDYWGQGTQVTVSS | high polyreactivity
11 | QVQLQESGAGLEQAGGSLRMSCAASGYISDIVTMGWYRQAPGKEREFVATIVVGSTTNYADSVKGRFTISRDNANNSVYLQPESGRYRGVLLRGWLLAVGKFTYWGQGTQETVSS | low polyreactivity
12 | QVQLVESGGGLVQAGGSLRLSCAASGFTFQSYAMGWYRQAPGKESELVAAISWSGGSTYYADSVKGRFTISRDNAKNTVYLEMNSLKPEDTAVYYCAADAPRSYRFGYWGQGTQVTVSS | high polyreactivity
13 | QVHLVESGGGLVQAGGSLRLSCAASGFTIYTYAMGGYRQAPGKERELVAAISSSGGSTSYADSVKGRFTISRDNAKITDYLQMNSLKPDDTALYYCNRGWRQQLGYWGQGTQVNVSS | high polyreactivity
14 | QVQLVESGGGLVQAGGSLRLSCAASGSTFSDYTMGWSRQAPGKDRVLVAALNAGGSTNYADSVKGRFTISRDNAKNTVYLQMNSLKPEDTAVYYSNADSSYLANGYWDPDYTPYDSWGQGTQVTVSS | low polyreactivity
15 | QVQLVESGGGLVQAGGSLRLSCAASGFIFDYYAMGWYRQAPGKERELVASISGDDGRTYYADSVKGRFTISRDNAKNTVYLQMNSLKPEDTAVYYCNAEWGVLNYDYWGQGTQVTVSS | low polyreactivity
16 | QVQLVESGGGLVQAGGSLRLSCDASGSIFSQYAMGWDRQAPGKEWELVAAITWSGGSTYYADSVMGRFTFSRDNAKNTVYLQMNSLKPEDTEVYYCAATGYYYTRSSTWYRYYYWGQGTQVTVSS | high polyreactivity
17 | QVQLVESGRGLVQAGGSLRLSCAASGFTFRNYAMGWYRQAPGKERELVAAITRRGGSTYYADSVKGRFTISRDNAKNTVYLQMNSLKTEDTAVYYCNADREVPWGKDNLDYWGQGTQVTVSS | high polyreactivity
18 | QFQLVESGGGLVQAGGSLRLSCAASGINFSSYVMGWYRQAPGKERELVAAISKSGARTSYADSVKGRFSISRDNAKNTVYLQMNSLKPEDTAVYYCNAYTESWYPIYFFGWSYTAVDYWGQGTQVTVSS | low polyreactivity
19 | QVQLVESGGVLVQAGASLRLSCAASGLTFAVYTMGGYRQAPGKEMELVAAITWDGGITYYADSVKGRFTISRDNAKYTVYLQMNSLKPEDTAVYYCAADYALGEVYWYNYWGQGTQVTVSS | low polyreactivity
20 | QVQLVESGGGLVQAGGSLRLSCAASGSTFSWNTMGWYRQAPGNERELVAAINSGGSTYYADSVKGRFTISRDNAKNTVYLQMNSLIPEDTAVYYCASRTKYYGRFDYWGQGTQVTVSS | low polyreactivity
21 | QVQLVESGGGLVQAGGSLRLSCAASGRTFVWNAMGWYRQAPGTERELVAAITSGGSTNYADSVKGRFTISRDNAKNTVYLQMNSLIPEDTAVYYCGAVWQYSPRMDYWGQGTQVTVSS | low polyreactivity
22 | QVQLVESGGGLVQAGGSLRLSCAASGFTFEGYAMGWYRQAPGKERDLVAAISSNGGRTYYADSVKGRFTISRDNAKNPVYLQMNSLKPEDTAVYYCNADGYGDYSFLKYRFEYDYWGQGTQVTVSS | low polyreactivity

Row | Sequence | polyreactivity (PSR sort gate)
23 | QVQRVESRGVLVQAGGTLRLSCAASGISFGRNTMGWYRQAPLKERELVATIRSGTNYADSVKGRFTISRDNAKNTVDLQMNSLKPDDTAVDYCAVRYFGGRRSYYWGQGSQVTVSS | high polyreactivity
24 | QVQLVESGGGLVQAGGSLRLSCAASGSIFYDNAMGWYRQAPGKERELVAVISNSGRTDYADSVKGRFTISRDNAKNTVYLQMNSLKPEDTAVYYCAAVVQGTTVWWGYDYWGQGTQVTVSS | low polyreactivity
25 | QVQLVESGGGLVQAGGSLRLSCAASGIIFSQYAMGWYRQAPGKERELVAGITRSGGSTYYADSVKGRFTISRDNAKNTVYLQMNSLKPEDTAVYYCAAVQRYEYGYWGQGTQVTVSS | high polyreactivity
26 | QVQLQECGGGLVQAGGSLRLSCAASGTFSNSVKWLYCHAPGKEREFVATIGVGGSTNYADSVKGRFTISRDNAKYTVYLQMNSLKPEDTAVYHCAAYGAASNFHYYRGQGTQVTVSS | low polyreactivity
27 | QVQIVESGGGLVQAAGSLRLSCPASGRIFSDYAMGWYRQAPGKERELVAVITRGGDNTHYADSVKGRFTISRDNAKNTVYFQMNSLKPEDTAVYYCAAGFVYFRLRRYFWRDYWGQGTQVTVSS | low polyreactivity
28 | QVQLVESGGGLVQAGGSLRLSCAASGFICDYNAMGWYRQAPGKERELVAAISGGGGSTYYADSVKGRFTISRDNAKKTVYLQMNSLKPEDTAVYYCAKRYRGGYWGQGTQVTVSS | high polyreactivity
29 | QVQLVESGGGLVQAGGSLRLSCAASGSTFFSYAMGWYRQAPGKERELVAVITGSDGRTFYADSVKGRFTISRDNAKNTVYLQMNSLKPEDTAVYYCAADAVFRATRYDRSTSEDDYWGQGTQVTVSS | low polyreactivity
30 | QVQLVESGGGLVQAGASLRLSCAASGLTFEYYTMGWYRQAPGKERELVAAITSSGGSTYYADSVKGRFTISRDNAKNTVYLQMNSLKPEDTAVYYCNAYWTYEFPSYDYWGQGTQVTVSS | low polyreactivity
31 | QVQLVESGGGLVQAGGSLRLSCAASGFIFYRNAMGWYRQAPGKERELVAAISGSGGRTYYADSVKGRFTISRDNAKITVYLQMNSLNPEDTAVYYCNAGPLYRGEYDYWGQGTQVTVSS | high polyreactivity
32 | QVQLVESGGGLVQAGGSLRLSCAASGGTFDSYVMGWYRQAPGKERELVAAITWSGGSTYYAESVKGRFTISRDNAKNTVYLQMNSLKPEDTAVYYCNNGGSTTYAYDYWGQGTQVTVSS | low polyreactivity
33 | QVQLVESGGGLVQAGGSLRLSCAASGRTFYRYVMGWYRQATGKERELDADISRRGGRTYYADSVKGRFTISRDNAKNTVYLQMNSLKPEDTAVYYCAAESKYATSSPRRDYWGQGTQVTVSS | high polyreactivity
34 | QVQLVETGGGLVQAGGSFRLSCAASGGIFRTYAKGWYRQAPGKERELVAAISRSGGSTYYADSVKGRFTISRDNAKNTVYLQMNSLKPEDTAVYYCAASRPYYPLYGYWGQGTQVTVSS | high polyreactivity
35 | QVQLVESGGGLVQAGGSLRLSCAASGLTFRWYAMGWYRQEPGKERELVAAISSSGNTNYADSVKGRFTISRDNAKNTVYLQMNSLKPGDSAVYYCAASYYSYPPGLSQTRLTYYYWGQGTQLTVSS | high polyreactivity
36 | QVQLVESGGGLVQAGGSLRLSCAASGSTFRYYAMGWYRQAPGKERELVAAITKNGGSTYYADSVKGRFTISRDNAKNTVYLQMNSLKPEDTAVYYCADQYSYSGWYYVSYYYWGQGTQVTVSS | high polyreactivity
37 | QVQLVESGGGLVQAGGSLRLTCAASGIIFSGYAMGWYRQAPGTERELVASIRSGSNTYYADSVKGRITISRDNAKYTVYFQMNSLKPEDTGVYYCAADIEYSYFQVFSYNYEYWGQGSQVTVSS | low polyreactivity
38 | QVQLVESGGGLVQAGGSLRLSCAASGYIFRSYVMGWYRQAPGKERELVAAISVSGGRTYYADSVKGRFTMSRDNAKNTVYLQMNSLIPEDTAVYYCAAYLGRRGQEMDYWGQGTQVTVSS | high polyreactivity
39 | QVQLVESGGGLVQAGGSLRLTCAASGSTFQHYAMGWYRQAPGKEMELVAAITNTGGSTYYADSVKGRFTISRDNAKNTVYLQMNSLKPEDNAVYYCATVARRYGYPGYYWGQGTQVTVSS | low polyreactivity
40 | QFQLVESGGGLDQAVGSLRLSCAASGSIFYPNVMGGYREAPGKEREMVAAIRTSGGSTYYADSVQGRFTISRETAKNTVYLQMNSLKPEDTAVYYCAAKRTGNGYPRSGYYRYEYWGHGTQVTVSS | high polyreactivity
41 | QVQLVESGGGLVQAGGSLRLSCAASGLTFGPYAMGWYRQAPGKERELVAAITSGGYTNYADSVKGRFTISRDNAMNTVYLQMNSLKPEDTAVYFCATSYYLAYRSITPYDYWGQGTQVTVSS | low polyreactivity
42 | QVQLVESGGRLVQAGGSLRLSCAASGSTFYPYAMGWYRQAPGKERELVAAINGNGGRTYYADSVKGRFTISRDNAKNTVYLQMNSLKPEDTAVYYCAVVRVAWGHRSDYWGQGTQVTVSS | high polyreactivity
43 | QVQLVESGGGLVQAGGSLRLSCAASGRTIVYYAMGWYRQAPGKERDFVAAISRSGGRTSYADSVKGRFTISRDNAKNTVYLQMNSLKPEDTAVYYCAAEKRTQPTSREYYWGQGTQVTVSS | high polyreactivity
